Assay results as given in patent publication US20120258121A1 (OMEROS, published 2012).
Where a chain is given by its changes, count along the chain named.

What was measured:
[1] = biological target: T1, recombinant human FN14-Fc fusion protein (rhFN14-Fc; R&D Systems) (human, UniProt Q9NP84 28-79); assay: saturation binding of PECy5-labelled soluble antigen to FN14-specific DTLacO cells, flow cytometry
T1 construct: Bought reagent; Detected with PECy5-labeled anti-human IgG(Fc); also called soluble FN14; PECy5-labelled soluble antigen; not shown: Fc part of the bought fusion protein (detected with anti-human IgG(Fc))
T1 sequence: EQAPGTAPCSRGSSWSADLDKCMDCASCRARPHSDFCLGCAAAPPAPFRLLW

[2] = biological target: T1, recombinant human FN14-Fc fusion …; assay: saturation binding of soluble antigen to DTLacO[FS24] cells, flow cytometry
[3] = biological target: T2, human FN14 on the cell surface (FN14-transfected cells or cancer cell lines intrinsically expressing FN14, … (human, UniProt Q9NP84 28-129)); assay: binding affinity; method not restated in Example 3 (saturation binding on FN14-expressing cells by the methods of Example 1)
T2 construct: The cells in the assays are human cancer lines or FN14-transfected cells (293F/FN14); also called TWEAKR; CD266
T2 sequence: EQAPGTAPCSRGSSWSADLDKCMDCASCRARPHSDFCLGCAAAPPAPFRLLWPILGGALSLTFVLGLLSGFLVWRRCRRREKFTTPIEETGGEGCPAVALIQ

[4] = biological target: T2, human FN14 on the cell surface …; assay: saturation binding of recombinant antibody on target-expressing cells
Description: (§1) Saturation binding kinetics were determined by either staining FN14-specific DTLacO cells with various concentrations of fluorescent-labeled soluble antigen, or by staining FN14-transfected cells or cancer cell lines intrinsically expressing FN14 with various concentrations of the recombinant chimeric anti-FN14 mAbs.

[5] = biological target: T2, human FN14 on the cell surface …; assay: saturation binding of recombinant antibody on target-expressing cells (A375 melanoma)
Description: as §1

[6] = biological target: T2, human FN14 on the cell surface …; assay: binding affinity; method not restated in Example 3 (saturation binding on FN14-expressing cells by the methods of Example 1); remark: listed apart in the source

B1: surface immunoglobulin of the FN14-specific DTLacO cell population FS17 (antibody, V domains shown)
VH: AVTLDESGGGLQTPGGALSLVCKASGFTFSSYDMAWVRQEPGKGLEWVAGIDDDGSGRRYAPAVKGRATISRDNGQSTLRLQLNNLRAEDTGTYYCTKCAYTGGCDYEGGYIDAWGHGTEVIVSS
VL: ALTQPASVSANPGETVKITCSGGGSSYYAGSYYYGWYQQKAPGSAPVTLIYYNNKRPSDIPSRFSGSLSGSTNTLTITGVRADDEAVYFCGSIDNSGAAFGAGTTLTVL
notes: Chicken surface IgM on DTLacO cells
B1 showed a Kd [1] of 700 pM.

B2: surface immunoglobulin of the FN14-specific DTLacO cell population FS10 (antibody, V domains shown)
VH: B1 VH with T102S, G103S
VL: B1 VL with P46L, I93A
notes: Chicken surface IgM on DTLacO (DT40-derived) cells
Binder B2 has a Kd [1] of 25000 pM.

B3: surface immunoglobulin of the FN14-specific DTLacO cell population FS24 (antibody, V domains shown)
VH: B1 VH with D53Y, A100G
VL: B1 VL with A6S
notes: Chicken surface IgM on DTLacO cells; also called DTLacO[FS24]
For B3, the Kd [2] was 440 pM and the Kd [1] was 670 pM.

B4: chimeric PS4 antibody (parent of the humanized PS4 versions) (antibody, human IgG1, lambda, V domains shown)
VH: B1 VH with A35F, T102S, G103S
VL: ALTQPASVSANPGETVKITCSGGGSSYYAGSYYYGWYQQKSPGSAPVTVIYYNNKRPSDIPSRFSGSLSGSTNTLTITGVRADDEAVYFCGSIDNSGAAFGAGTTLTVLG
notes: also called Chicken PS4; original chimeric antibody PS4
B4 showed a Kd [3] of 210 pM.

B5: recombinant chimeric monoclonal antibody FS10 (chicken V regions, human IgG1 / lambda constant regions) (antibody, V domains shown)
VH: B1 VH with T102S, G103S
VL: B4 VL with S41A, P46L, V49L, I93A
notes: expressed in 293F cells; also called mAb FS10
Binder B5 has a Kd [4] of 25000 pM.

B6: recombinant chimeric monoclonal antibody FS17 (chicken V regions, human IgG1 / lambda constant regions) (antibody, V domains shown)
VH: B1 VH
VL: B4 VL with S41A, V49L
notes: also called mAb FS17
Binder B6 has a Kd [4] of 360 pM.

B7: recombinant chimeric monoclonal antibody FS24 (chicken V regions, human IgG1 / lambda constant regions) (antibody, V domains shown)
VH: B1 VH with D53Y, A100G
VL: B4 VL with A6S, S41A, V49L
notes: also called mAb FS24; Chicken FS24
For B7, the Kd [5] was 210 pM and the Kd [6] was 260 pM.

B8: recombinant chimeric monoclonal antibody PS4A (chicken V regions, human IgG1 / lambda constant regions) (antibody, V domains shown)
VH: B1 VH with A35F, T102S, G103S
VL: B4 VL with A6S, S41A, V49L
B8 showed a Kd [4] of 210 pM.

B9: Humanized PS4: H.1/L.1 (antibody, human IgG1)
heavy: not shown
light: SYELTQPPSVSVSPGQTARITCSGGGSSYYAGSYYYGWYQQKPGQAPVTVIYYNNKRPSGIPERFSGSLSGSTNTLTISGVQAEDEADYYCGSIDNSGAAFGGGTKLTVLGQPKAAPSVTLFPPSSEELQANKATLVCLISDFYPGAVTVAWKADSSPVKAGVETTTPSKQSNNKYAASSYLSLTPEQWKSHRSYSCQVTHEGSTVEKTVAPTECS
notes: also called first humanized version of PS4
In the case of B9, the Kd [3] is reported as 15000 pM.

B10: Humanized PS4: H.1/L.9 (antibody, human IgG1, lambda)
heavy: not shown
light: ALTQPPSVSVSPGQTARITCSGGGSSYYAGSYYYGWYQQKPGQAPVTVIYYNNKRPSGIPERFSGSLSGSTNTLTISGVQAEDEADYYCGSIDNSGAAFGGGTKLTVLGQPKAAPSVTLFPPSSEELQANKATLVCLISDFYPGAVTVAWKADSSPVKAGVETTTPSKQSNNKYAASSYLSLTPEQWKSHRSYSCQVTHEGSTVEKTVAPTECS
notes: also called humanized PS4 antibody H.1/L.9
B10 gave a Kd [3] of 240 pM.

B11: Humanized FS24 (antibody, human IgG1, lambda, V domains shown)
VH: EVQLVESGGGLVQPGGSLRLSCAASGFTFSSYDMAWVRQAPGKGLEWVAGIDYDGSGRRYAPAVKGRATISRDNSKNTLYLQMNSLRAEDTAVYYCTKCGYTGGCDYEGGYIDAWGQGTLVTVSS
VL: ELTQPPSVSVSPGQTARITCSGGGSSYYAGSYYYGWYQQKPGQAPVTLIYYNNKRPSGIPERFSGSLSGSTNTLTISGVQAEDEADYYCGSIDNSGAAFGGGTKLTVLG
notes: also called hFS24; humanized FS24 antibody
With B11 the Kd [6] was 210 pM.

B12: recombinant chimeric monoclonal antibody PS4B (chicken V regions, human IgG1 / lambda constant regions) (antibody, V domains shown)
VH: B1 VH with A35F, T102S, G103S
VL: B4 VL
With B12 the Kd [4] was 350 pM.
